In the series the target is FGFR1 extracellular domain (human, UniProt P11362 22-376). As to the kind of experiment: SPR; 1:1 model; ka 2.20E10 1/Ms, kd 54.9 1/s; SPR: Biacore T200, CM5 amine coupling, HBS running buffer (pH, salt, temperature not stated); flow cytometry: PBS, 1% BSA, 0.1% sodium azide, room temperature. The settings on record: protein: commercial; stem-loop (Mfold).
FGFR1 extracellular domain, sequence (P11362 22-376): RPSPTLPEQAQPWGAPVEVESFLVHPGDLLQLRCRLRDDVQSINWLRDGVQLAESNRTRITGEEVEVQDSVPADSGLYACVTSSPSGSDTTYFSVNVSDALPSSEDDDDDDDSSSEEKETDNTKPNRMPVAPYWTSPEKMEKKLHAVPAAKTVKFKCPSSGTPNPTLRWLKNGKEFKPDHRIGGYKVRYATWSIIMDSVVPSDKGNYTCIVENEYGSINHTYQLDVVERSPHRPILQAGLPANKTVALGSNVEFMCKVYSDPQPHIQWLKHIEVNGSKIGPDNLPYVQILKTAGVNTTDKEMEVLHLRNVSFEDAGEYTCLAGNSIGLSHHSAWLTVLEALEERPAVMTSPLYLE

B1: FGFR-binder (structured_DNA)
DNA: GCCGCGTCTTTATGGCTGGGGATGGTGTGGGTTGCGGC
The term Kd denotes a measure of binding affinity in units of concentration. With B1, the Kd was determined as 2.5 nM.

Source of the values: article PMC10638775, “Development of synthetic modulator enabling long-term propagation and neurogenesis of human embryonic stem cell-derived neural progenitor cells”.
